From US20160200789A1, “IL4 CONJUGATED TO ANTIBODIES AGAINST EXTRACELLULAR MATRIX COMPONENTS” (PHILOGEN S.P.A., priority 2013, published 2016) come the findings set out here.

For series [1], the target named is T1, EDA domain of fibronectin (Homo sapiens, UniProt P02751).
T1 construct: surface plasmon analysis (BIAcore) on an EDA antigen-coated sensor chip
The series can be described thus: Surface plasmon analysis (BIAcore) on EDA antigen-coated sensor chip. It is filed as binding. The text has this:
The fusion protein was expressed and purified to homogeneity as described for F8-IL4 above.

In series [2] the test system is tumour neovascular structures in murine F9, CT26 and A20 tumours. The series can be described thus: Immunofluorescence on untreated tumour sections. Details: species or system mouse. The conditions noted are these: biotinylated protein on F9, CT26 and A20 tumour sections. From the text: For detection streptavidin-Alexa Fluor 488 and anti-rat-Alexa Fluor 594 (Invitrogen) were used. Slides were mounted with fluorescent mounting medium (Dako) and analyzed with an Axioskop2 mot plus microscope (Zeiss).

The test system of series [3] is F9 teratocarcinoma. The series can be described thus: Ex vivo immunofluorescence of treated F9 tumours. It is filed as in vivo, mouse. The conditions noted are these: ex vivo immunofluorescence after i.v. administration. The method, then:
For ex vivo detection of the localization of the IL4-based immunocytokines and of tumour infiltrating cells after therapy, mice were injected three times with the appropriate proteins as for therapy experiments and sacrificed two days after the last injection. Tumours were excised, embedded in cryoembedding medium (Thermo Scientific) and cryostat sections (10 μm) were stained using the antibodies: Anti-IL4 antibody (eBioscience), CD45 (leukocytes, BD Biosciences), CD4 (CD4+Tcells, BioXCell), CD8 (CD8+Tcells, BioXCell), F4/80 (macrophages, Abcam), Asialo GM1 (NK cells, Wako Pure Chemical Industries), CD45R (B cells, eBioscience), Foxp3 (eBioscience), CD31 (Santa Cruz); and detected with AlexaFluor488 respectively AlexaFluor594 coupled secondary antibodies (Invitrogen). Slides were mounted with fluorescent mounting medium (Dako) and analyzed with an Axioskop2 mot plus microscope (Zeiss).

The subject of series [4] is F9 teratocarcinoma. In words: Therapy studies in F9 teratocarcinoma-bearing mice. It is filed as in vivo, mouse. The method, then: In a dose finding study, F9 tumour-bearing mice were randomly grouped (n=5) and injected intravenously (i.v.) into the lateral tail vein when tumours were clearly palpable. […] The therapeutic antibodies were all dissolved in phosphate buffered saline (PBS) and this buffer was also used in the negative control treatment groups. The mice were monitored daily and tumour volume was measured with a calliper (volume=length×width^2×0.5).

Series [5] can be described thus: Solubility of the product (limit of dose escalation). In kind it is physicochemical. Particulars: doses above 90 μg could not be tested.
Series [6] relates to CT26 colon carcinoma. The series can be described thus: Ex vivo immunofluorescence of CT26 tumours. It is filed as in vivo, mouse.
Description: (§1) In order to study a second immunocompetent mouse model of cancer, the inventors focused on Balb/c mice (obtained from Elevage Janvier [France]) bearing subcutaneous CT26 tumours of colorectal origin.
Series [7] deals with cytokine levels in ear tissue. The series can be described thus: Cytokine levels in ear tissue extracts of psoriasis models (multiplex bead flow cytometry). In kind it is in vivo, mouse. The method, then: Ear tissue was obtained at the end of therapy from each mouse and processed to a tissue extract as previously described (Schwager et al., 2013). The end of therapy was day 13 for the IMQ model described in Example 14 and day 15 for the CHS model described in Example 15. Briefly, ears were cut into small pieces and suspended in a 50 mM Tris, 150 mM NaCl buffer containing complete protease inhibitor cocktail (Roche Diagnostics, Rotkreuz, Switzerland). For homogenization, a 5 mm stainless steel bead (Qiagen, Hombrechtikon, Switzerland) was added, and the tissue was homogenized in a QIAGEN Tissue Lyzer (4× 1 minute, 4° C., 30 Hz). After centrifugation (5 min, 4° C., 16,000 g), supernatant was harvested […]. Protein concentrations were determined by BCA assay (Thermo Fisher Scientific, IL) and total protein concentration of all samples was normalized. To quantify cytokine levels of treated and control mice, a multiplex bead-based flow cytometry analysis was performed using the mouse Th1/Th2/Th17/Th22 13plex FlowCytomix Multiplex kit (eBioscience). FACS analysis was performed on a BD FACS Canto (BD Bioscience, Allschwil, Switzerland) and data evaluated with FlowCytomix Pro 3.0 software (eBioscience). Using standard curves generated by the FlowCytomix Pro 3.0 software with control samples, a level of quantification was assigned for each cytokine.

The test system of series [8] is endometriotic lesions in Balb/c mice. The series can be described thus: Endometriosis model in Balb/c mice. In kind it is in vivo, mouse. As to the method:
Endometriosis was induced in sixty eight-week old female Balb/c mice according to the protocol described by Somigliana et al. (1999).
One day after the implantation of endometrial tissue, pairs of mice (who received tissue from the same donor) were treated either with intravenous (i.v.) injections of F8-murine IL4 (200 μg/mouse; SEQ ID NO: 21) or PBS (group 1); or with i.v. injections of KSF-murine IL4 (200 μg/mouse; SEQ ID NO: 44) or PBS (group 2). The same treatment was repeated at days 4 and 7. Mice were sacrificed at day 15.

Series [9] relates to experimental autoimmune encephalomyelitis (EAE) in C57/BL6 mice. In words: Experimental autoimmune encephalomyelitis (EAE) model of multiple sclerosis. In kind it is in vivo, mouse. From the text: 36 C57/BL6 mice were immunized with MOG35-55/CFA and pertussis toxin by injection as reported in McCarthy et al. (2012) to induce experimental autoimmune encephalomyelitis (EAE), a model for multiple sclerosis (MS). Mice were scored daily and using a grading system from 0 to 5 reflecting progressive paralysis (McCarthy et al., 2012). Any mouse with newly developed clinical signs of EAE was assigned to one of three groups in a balanced manner. Treatment started on the day of assignment to a group (first day after EAE onset). Mice in the F8-murine IL4 treatment group (SEQ ID NO: 21) (indicated by circles in FIG. 18) received a total of three i.v. injection of 200 μg each (200 μl of a 1 mg/ml solution), every third day (see black arrows in FIG. 18). Mice in the Fingolimod (FTY720) treatment group (indicated by squares in FIG. 18) received daily oral gavage at a dose of 1 mg/kg (see open arrows in FIG. 18).

Series [10] relates to A20 lymphoma. In words: Therapy studies in A20 tumour-bearing mice. Particulars: 90 μg i.v. every second day.
Description: (§2) Data represent mean tumour volumes (±SEM), n=5 mice per group. […] Data represent mean tumour volumes (±SEM), n=5 mice per group.
Differences in tumor volume, % ID/g and Tumor-to-blood ratio between therapeutic groups were compared using Graphpad Prism's repeated measures (mixed model) ANOVA analysis.
For this, as well as the other experiments described below, F9 teratocarcinoma (CRL-1720; ATCC, Molsheim Cedex, France), CT26 colon carcinoma (CRL-2638; ATCC, Molsheim Cedex, France) and A20 lymphoma (TIB-208; ATCC, Molsheim Cedex, France) were grown according to the supplier's protocol and tumour cells implanted subcutaneously in the flank using 25×10^6 cells (F9), 2×10^6 cells (CT26) or 8×10^6 cells (A20). F9 teratocarcinoma cells were implanted into 129/SvEv mice (Charles River, Sulzfeld, Germany), CT26 colon carcinoma cells were implanted into Balb/c mice (Elevage Janvier, Le Genest-St-Isle, France) and A20 lymphoma cells were implanted into Balb/c mice (Elevage Janvier, Le Genest-St-Isle, France). Mice were sacrificed when tumour volumes reached a maximum of 2000 mm^3.
For series [11], the system named is CT26 colon carcinoma. The series can be described thus: Therapy studies in CT26 tumour-bearing mice. Particulars: 90 μg i.v. every 48 h.
Description: as §2
In the description of the below experiments, data are expressed as the mean (±SEM). Differences in tumor volume, % ID/g and Tumor-to-blood ratio between therapeutic groups were compared using Graphpad Prism's repeated measures (mixed model) ANOVA analysis.
Mice were sacrificed when tumour volumes reached a maximum of 2000 mm^3.
as §1
The test system of series [12] is A20 lymphoma. The series can be described thus: Biodistribution and ex vivo immunofluorescence in A20 tumour-bearing mice. Particulars: after i.v. administration.
[13] abbreviates: IMQ and CHS models, end of therapy.
The mark [14] stands for this setting: 200 μg/mouse i.v. days 1, 4, 7, day 15, vs PBS.

T1 sequence (P02751 1727-1814 limits assumed): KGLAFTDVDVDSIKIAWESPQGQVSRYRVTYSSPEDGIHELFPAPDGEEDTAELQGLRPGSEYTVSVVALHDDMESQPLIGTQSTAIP

B1: F8-IL4: antibody F8 (anti-EDA of fibronectin) in diabody format fused at the C-terminus to murine interleukin 4 via 15 amino acid linker (protein)
chain: EVQLLESGGGLVQPGGSLRLSCAASGFTFSLFTMSWVRQAPGKGLEWVSAISGSGGSTYYADSVKGRFTISRDNSKNTLYLQMNSLRAEDTAVYYCAKSTHLYLFDYWGQGTLVTVSSGGSGGEIVLTQSPGTLSLSPGERATLSCRASQSVSMPFLAWYQQKPGQAPRLLIYGASSRATGIPDRFSGSGSGTDFTLTISRLEPEDFAVYYCQQMRGRPPTFGQGTKVEIKSSSSGSSSSGSSSSGHIHGCDKNHLREIIGILNEVTGEGTPCTEMDVPNVLTATKNTTESELVCRASKVLRIFYLKHGKTPCLKKNSSVLMELQRLFRAFRCLDSSISCTMNESKSTSLKDFLESLKSIMQMDYS
modifications: Synthetic sequence Amino acid sequence of F8 -(murine) IL4 of PCT/EP2014/053998
notes: antibody F8 (anti-EDA of fibronectin) in diabody format fused at the C-terminus to murine interleukin 4 via 15 amino acid linker
For B1, in [1], the “affinity for the cognate antigen” value was “retained a high-affinity for the cognate antigen”. For the same molecule, in series [2], the “recognition of tumour neovascular structures” value is recorded as “able to recognize tumour neovascular structures”. The “accumulation on CD31-positive tumour neo-vascular structures” value in [3] is recorded as “preferential accumulation”. For the same molecule, the “tumour retardation in dose finding study” value in series [4] (90 μg compared with 45 μg, i.v. every second day) is reported as “best tumour retardation results”. In series [4] (90 μg i.v. every second day), the “therapeutic effect compared with KSF-IL4” value was “substantially more potent”. Also, in [4] (monotherapy), the “cure of F9 tumours by treatment alone” value is “not cured”. In addition, in series [4] (mouse, in vivo), the single-agent therapeutic activity result is recorded as “potent single-agent therapeutic activity”. In series [5], the solubility result is “insufficient solubility”. Besides, the “accumulation at the tumour site” value in series [6] is recorded as “preferentially accumulated at the tumour site”. For the same molecule, in series [7] (setting [13]), the “IL2 level in ear tissue” value was “do not appear to show a change in concentration”, the “IL10 level in ear tissue” value is reported as “up-regulated”, the “IL13 level in ear tissue” value was “up-regulated” and the “IL27 level in ear tissue” value is reported as “up-regulated”. For the same molecule, in [7] (IMQ-induced psoriasis model), the “IL-1 alpha level in ear tissue” value is on record as “may be down-regulated”. In series [8] (200 μg/mouse i.v.), the “mice completely cured of the disease” value is “three mice out of ten”. Further, in series [8] (setting [14]), the “number of the endometriotic lesions” value was “statistically significant reduction” and the “volume of the endometriotic lesions” value is recorded as “statistically significant reduction”. In [9] (fingolimod 1 mg/kg daily oral gavage), the “EAE severity compared with fingolimod” value is given as “not significantly different”. For the same molecule, in [9] (three i.v. injections of 200 μg, every third day), the “EAE severity compared with PBS” value is listed as “significantly reduced EAE severity”. For the same molecule, in series [10], the tumour growth retardation entry was “superior tumour growth retardation compared to KSF-IL4”. In addition, the therapeutic performance result in [11] is listed as “superior therapeutic performance compared to KSF-IL4”. The “accumulation around tumour neo-vascular structures” value in [12] is on record as “preferential accumulation”.
